According to patent publication US20040122214A1 (TRIMERIS, published 2004):
No end group written: not given here.

Legend:
[1] = target: gp41 of HIV-1 strain resistant to SEQ ID NO:114 peptide (HIV-1); assay: cell-based or functional assay
[2] = target: gp41 of HIV-1 strain sensitive to SEQ ID NO:114 peptide (HIV-1); assay: cell-based or functional assay

Binder: LTWQEWDREINNYTSLIYSLIEESQNQQEENEQELL [peptide comprising SEQ ID NO:114, synthetic peptide alone]
- IC50, in vitro infectivity assay [1]: 2.4 µg/mL
- IC90, in vitro infectivity assay [1]: > 20 µg/mL
- IC50, in vitro infectivity assay [2]: 0.005 µg/mL
- IC90, in vitro infectivity assay [2]: 0.034 µg/mL

B1: conjugate comprising two molecules of SEQ ID NO:114 operably bound to PEG 6 (other)
peptide: {PEG‑6 diacid}-LTWQEWDREINNYTSLIYSLIEESQNQQEENEQELL
modifications: not fully specified; also: dimer: two peptides bound to PEG-6 diacid via N-termini
- IC50, in vitro infectivity assay [1]: 0.15 µg/mL
- IC50, in vitro infectivity assay [2]: 0.016 µg/mL
- IC90, in vitro infectivity assay [2]: 0.169 µg/mL
